Residue numbers refer to the chain shown, from its start.
Tests used:
human recombinant VCAM-1 = molecular target: T1, human recombinant VCAM-1 (human, UniProt P19320 25-698); test: SPR, Biacore 3000, recombinant hVCAM-1 immobilised on CM5 chip, 1:1 model
T1 construct: Bought recombinant protein (RnD Systems), immobilised on a CM5 chip for SPR; also called hVCAM-1; human VCAM-1
T1 sequence (looked up): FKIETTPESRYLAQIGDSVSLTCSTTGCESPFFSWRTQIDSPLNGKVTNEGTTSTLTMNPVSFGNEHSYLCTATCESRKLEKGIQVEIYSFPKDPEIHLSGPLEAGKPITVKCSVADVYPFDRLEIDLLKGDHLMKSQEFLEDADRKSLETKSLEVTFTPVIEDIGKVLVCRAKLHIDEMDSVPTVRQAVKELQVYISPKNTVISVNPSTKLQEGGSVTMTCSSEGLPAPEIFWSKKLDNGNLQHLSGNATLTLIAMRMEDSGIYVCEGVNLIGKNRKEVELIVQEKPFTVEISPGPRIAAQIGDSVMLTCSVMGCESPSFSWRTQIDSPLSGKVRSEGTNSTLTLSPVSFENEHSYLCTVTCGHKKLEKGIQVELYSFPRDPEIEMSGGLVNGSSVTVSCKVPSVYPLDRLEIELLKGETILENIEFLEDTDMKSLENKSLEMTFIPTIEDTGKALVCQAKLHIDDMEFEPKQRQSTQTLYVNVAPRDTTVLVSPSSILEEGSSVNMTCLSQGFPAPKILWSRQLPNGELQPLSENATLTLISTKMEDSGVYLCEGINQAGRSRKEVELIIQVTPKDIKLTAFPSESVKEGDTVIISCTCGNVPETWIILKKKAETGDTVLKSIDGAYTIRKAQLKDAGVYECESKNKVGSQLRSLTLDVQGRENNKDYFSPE
Experimental: (§1) The affinity of human or murine recombinant VCAM-1 nanobodies was determined by SPR analysis on a Biacore 3000 apparatus. Recombinant mouse ICAM-1 (RnD Systems) was used as a negative control. The recombinant proteins were immobilized on a sensor chip CM5 (Biacore, Uppsala, Sweden) according to the instructions of manufacturer. Serial half-dilutions of the nanodbodies from 50 to 1 nM in PBS with 0.005% Tween-20® were tested. The affinity constants were determined by using adjustment of the standard association model 1:1 (BIAevaluation software package).

[1] = molecular target: T2, murine recombinant VCAM-1 (murine, UniProt P29533 25-698); test: SPR, Biacore 3000, recombinant mVCAM-1 immobilised on CM5 chip, 1:1 model
T2 construct: Bought recombinant protein (RnD Systems), immobilised on a CM5 chip for SPR; also called mVCAM-1; murine VCAM-1
T2 sequence (looked up): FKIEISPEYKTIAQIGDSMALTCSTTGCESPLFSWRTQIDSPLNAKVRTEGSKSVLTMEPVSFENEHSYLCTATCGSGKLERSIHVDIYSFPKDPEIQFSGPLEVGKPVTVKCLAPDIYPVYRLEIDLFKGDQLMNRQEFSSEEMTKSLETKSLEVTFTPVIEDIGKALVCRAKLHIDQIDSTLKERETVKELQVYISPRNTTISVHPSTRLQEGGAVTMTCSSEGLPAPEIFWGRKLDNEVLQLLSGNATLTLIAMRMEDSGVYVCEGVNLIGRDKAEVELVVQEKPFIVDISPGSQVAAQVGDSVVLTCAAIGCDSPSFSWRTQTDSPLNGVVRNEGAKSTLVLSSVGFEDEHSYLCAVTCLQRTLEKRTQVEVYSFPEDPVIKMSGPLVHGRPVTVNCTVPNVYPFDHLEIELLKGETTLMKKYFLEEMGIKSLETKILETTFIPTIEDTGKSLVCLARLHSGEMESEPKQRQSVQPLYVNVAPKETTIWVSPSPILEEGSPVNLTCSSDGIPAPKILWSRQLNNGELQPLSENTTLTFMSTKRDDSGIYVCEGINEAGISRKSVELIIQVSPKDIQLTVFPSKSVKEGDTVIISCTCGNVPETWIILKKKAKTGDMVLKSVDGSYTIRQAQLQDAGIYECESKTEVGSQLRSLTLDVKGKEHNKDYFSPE
Experimental: as §1

[2] = molecular target: T3, rabbit VCAM-1 on transfected CHO cells (rabbit, UniProt A0A5F9DFM7 25-739); test: flow cytometry (PE-A) on CHO cells transiently transfected with rabbit VCAM-1; nanobody, then anti-His-tag mAb and anti-mouse IgG1 [Continuation), panel 8B]
T3 construct: whole, on cells
T3 sequence: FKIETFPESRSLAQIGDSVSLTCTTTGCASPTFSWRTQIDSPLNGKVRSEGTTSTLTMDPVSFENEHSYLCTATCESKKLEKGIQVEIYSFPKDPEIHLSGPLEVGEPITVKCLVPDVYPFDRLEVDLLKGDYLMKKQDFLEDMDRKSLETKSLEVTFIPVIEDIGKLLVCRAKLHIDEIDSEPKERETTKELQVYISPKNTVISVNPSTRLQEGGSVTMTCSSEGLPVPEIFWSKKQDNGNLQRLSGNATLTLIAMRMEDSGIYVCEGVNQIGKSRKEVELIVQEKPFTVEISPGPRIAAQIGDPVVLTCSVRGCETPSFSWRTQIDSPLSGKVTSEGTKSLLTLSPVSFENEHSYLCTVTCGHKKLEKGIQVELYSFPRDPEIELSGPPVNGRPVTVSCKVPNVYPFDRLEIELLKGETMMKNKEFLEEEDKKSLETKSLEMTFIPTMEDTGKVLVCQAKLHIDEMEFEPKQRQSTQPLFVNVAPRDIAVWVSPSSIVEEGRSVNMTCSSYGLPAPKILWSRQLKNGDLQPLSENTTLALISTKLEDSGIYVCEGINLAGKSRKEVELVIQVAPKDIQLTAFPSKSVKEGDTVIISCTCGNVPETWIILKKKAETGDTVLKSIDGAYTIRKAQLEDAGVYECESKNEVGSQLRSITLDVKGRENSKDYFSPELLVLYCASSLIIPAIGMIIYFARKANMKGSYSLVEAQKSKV
Experimental: (§2) 10⁵ CHO cells either transiently transfected or not with a plasmid coding for rabbit VCAM-1 were sequentially incubated with 1 μg of nanobodies, 1 μg of anti-His-tag monoclonal antibody (Serotec) and 200 ng of anti-mouse rat IgG₁ (BD Biosciences). The bond was measured on a FACS Canto II analyzer (BD Biosciences, Franklin Lakes, USA) and the data analysed with the FlowJo software package (TreeStar, Ashland, USA). A negative control was made by omitting the nanobody.

[3] = molecular target: T3, rabbit VCAM-1 on transfected CHO cells; test: flow cytometry (PE-A) on CHO cells transiently transfected with rabbit VCAM-1; nanobody, then anti-His-tag mAb and anti-mouse IgG1 [Continuation), panel 3B]
Experimental: as §2

B1: cAbVCAM1-5 (VHH)
VHH: QVQLQESGGGSVQTGGSLRLSCAASGYTNSIMYMAWFRQAPGKKREGVAAIRFPDDSAYYAGSVKGRFTISHDNAKNTVYLQMNNLNPEDTAMYYCAARSSPYSFAWNDPSNYNYWGQGTQVTVSS
notes: Dromedary nanobody produced with a hexahistidine tag in E. coli; also called anti-VCAM-1 nanobody; not shown: hexahistidine tag
Human recombinant VCAM-1
  Kd: 6.5 nM
[1]
  Kd: 2 nM

B2: cAbVCAM1-8 (VHH)
VHH: QVQLQESGGGLVQPGGSLRLSCAASGFTFSNYYMTWVRRAPGKGLEWVSRINSDGSTLYLPSVKGRFTISRDNAKNTLYLQMNSLKSEDTGWYYCVEGKSSVRGQGTQVTVSS
notes: as for B1
Human recombinant VCAM-1
  Kd: 1.4 nM
[1]
  Kd: 13.2 nM
[2]
  binding result: no binding (tested: 1 µg per 10^5 cells (single amount))

B3: cAbVCAM1-3 (VHH)
VHH: QVQLQESGGGSVQAGGSLRLSCTASGFTYSSYYMSWVRQAPGKGLEWVSGINVDGSNTYYADSVKGRFTISRDNAKNTLYLQMNSLKSEDTALYYCATGSGRDSYDCYSGSWCPKGQGTQVTVSS
notes: as for B1
Human recombinant VCAM-1
  Kd: 9.1 nM
[1]
  Kd: 2.4 nM
[3]
  binding result: no binding (tested: 1 µg per 10^5 cells (single amount))

B4: cAbVCAM1-9 (VHH)
VHH: B3 VHH with S11L, A14P, T23A, Y29F
notes: as for B1
Human recombinant VCAM-1
  Kd: 5.3 nM
[1]
  Kd: 0.9 nM
